Among the data in article PMC10916398 are binding signal and binding values, retold here.

The target of data set [1] is T1, HUα (UniProt P0ACF0).
T1 sequence: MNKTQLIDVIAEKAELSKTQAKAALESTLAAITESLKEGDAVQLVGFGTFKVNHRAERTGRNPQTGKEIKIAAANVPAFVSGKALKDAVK
The data set is described as follows: EMSA. In general terms: Mobility shift assays separate free from complexed probe on a gel.

Data set [2] concerns the target T2, HUβ (UniProt P0ACF4).
T2 sequence: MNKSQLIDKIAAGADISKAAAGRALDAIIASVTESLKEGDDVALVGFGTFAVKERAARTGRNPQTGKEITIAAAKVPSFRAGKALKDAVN
Briefly: EMSA.

With “AAACTGAATTTACGACCACGTAAATGTTTAGGTTGGAAAACACCTTATGAAGTTTACTTCAAAAAA (double strand) [IRR-FAM-NO-IRR]”, the binding signal entry in data set [1] and in data set [2] was “binds more weakly” in each case.
As for “CTTGAATTGTCAAACCAAGTGCAACGATTTTTTGAAGTAAACTTCATAAGGTGTTTTCCAACCTAAACATTTACGTGGTCGTAAATTCAGTTT (double strand) [IRR-FAM-WT]”, the binding entry in data set [1] and in data set [2] was “binds” each time.
Take “GGCAGTCGTTGATAGTGGATGGCGGCTTTATGTTGGCGAATCCACAGTTCAACCCAGAATAGCGCAGTGAGGTGCGTGGATATTTCATTGGGGCTGAATTTACAATCCAAGTGCAACAAAAAAAGAAGTACTCATCAACTAGAATATAATTTTGTTTCCACACAAAAACCATTTCCAAATGATGAGTACTTCCTACCGACATCTTACAATAAACGAGCGAGAAAAGATAATGATTTTACTCGCACAGGGC (double strand) [IRL-FAM-Long (ISApl1 promoter)]”: the binding result in data set [1] and in data set [2] was “binds” each time.
As to “CCCATACTGAATATACACTTGAGAGTATTTATAATTTGTATCTTGAATTGTCAAACCAAGTGCAACGATTTTTTGAAGTAAACTTCATAAGGTGTTTTCCAACCTAAACATTTACGTGGTCGTAAATTCAGTTT (double strand) [IRR-FAM-Long]”, the binding entry in data set [1] and in data set [2] was “binds” throughout.
